To fix the notation:
B1: phage clone EEASCAYHLGELVWCDAFDV (peptide)
peptide: EEASCAYHLGELVWCDAFDV
notes: M13/gIII phage display; Secondary Optimization
B2: phage clone GEASCAYHLGELVWCDEGEG (peptide)
peptide: GEASCAYHLGELVWCDEGEG
notes: as for B1
B3: phage clone WVEDCAWHMGELVWCTKVDE (peptide)
peptide: WVEDCAWHMGELVWCTKVDE
notes: as for B1
B4: phage clone KVADCAWHMGELVWCTEVEG (peptide)
peptide: KVADCAWHMGELVWCTEVEG
notes: as for B1
B5: phage clone KEASCSYWLGELVWCDGLDE (peptide)
peptide: KEASCSYWLGELVWCDGLDE
notes: M13/gIII phage display; Focused Libraries
B6: phage clone KEASCSYWLGELVWCVGLDE (peptide)
peptide: KEASCSYWLGELVWCVGLDE
notes: as for B5
B7: phage clone KEASCSYWLGELVWCDTFDE (peptide)
peptide: KEASCSYWLGELVWCDTFDE
notes: as for B5
B8: phage clone EQADCAWHLGELVWCTPMVF (peptide)
peptide: EQADCAWHLGELVWCTPMVF
notes: as for B1
B9: phage clone GEEDCAWHLGELVWCSGGDF (peptide)
peptide: GEEDCAWHLGELVWCSGGDF
notes: as for B1
B10: phage clone GEQDCSYHMGELVWCTTVDG (peptide)
peptide: GEQDCSYHMGELVWCTTVDG
notes: as for B1
B11: phage clone DLADCSYWLGELVWCSRVEG (peptide)
peptide: DLADCSYWLGELVWCSRVEG
notes: as for B5
B12: phage clone KEADCAWHMGELVWCSEMEG (peptide)
peptide: KEADCAWHMGELVWCSEMEG
notes: as for B1
B13: phage clone RVEDCAYHLGELVWCTEGDE (peptide)
peptide: RVEDCAYHLGELVWCTEGDE
notes: as for B1
B14: phage clone GVRNCAYHLGELVWCTPMEF (peptide)
peptide: GVRNCAYHLGELVWCTPMEF
notes: as for B1
B15: phage clone WVDCAYHLGELVWCSTFEE (peptide)
peptide: WVDCAYHLGELVWCSTFEE
notes: M13/gIII phage display; Secondary Optimization; printed with 19 residues
B16: phage clone EEPDCSWHLGELVMCTPMEV (peptide)
peptide: EEPDCSWHLGELVMCTPMEV
notes: as for B1
B17: phage clone EEPDCSWHLGELVWCTPIEV (peptide)
peptide: EEPDCSWHLGELVWCTPIEV
notes: as for B1
B18: phage clone READCAWHLGELVWCSERDL (peptide)
peptide: READCAWHLGELVWCSERDL
notes: as for B1
B19: phage clone WVEDCSWHMGELVWCDGGEF (peptide)
peptide: WVEDCSWHMGELVWCDGGEF
notes: as for B5
B20: phage clone GEPDCAWHLGELVWCTPMVF (peptide)
peptide: GEPDCAWHLGELVWCTPMVF
notes: as for B1
B21: phage clone GEEDCSYHLGELVMCTELDD (peptide)
peptide: GEEDCSYHLGELVMCTELDD
notes: as for B1
B22: phage clone WEADCAWHLGELVWCTKVEE (peptide)
peptide: WEADCAWHLGELVWCTKVEE
notes: as for B1
B23: phage clone GEADCAWHLGELVWCTKVEE (peptide)
peptide: GEADCAWHLGELVWCTKVEE
notes: as for B1
B24: phage clone KEADCAWHLGELVWCVAGVE (peptide)
peptide: KEADCAWHLGELVWCVAGVE
notes: as for B5
B25: phage clone KEASCSWHLGELVWCVAGVE (peptide)
peptide: KEASCSWHLGELVWCVAGVE
notes: as for B5
B26: phage clone KEASCSYWLGELVWCSPGVE (peptide)
peptide: KEASCSYWLGELVWCSPGVE
notes: as for B5
B27: phage clone KEASCSYHLGELVWCVAGVE (peptide)
peptide: KEASCSYHLGELVWCVAGVE
notes: as for B5
B28: phage clone KEASCSYWLGELVWCTEGVE (peptide)
peptide: KEASCSYWLGELVWCTEGVE
notes: as for B5
B29: phage clone RVADCAWHMGELVWCSELEV (peptide)
peptide: RVADCAWHMGELVWCSELEV
notes: as for B1
B30: phage clone KEARCWYWHGELVWCSDPEE (peptide)
peptide: KEARCWYWHGELVWCSDPEE
notes: as for B5
B31: phage clone GEADCSYHLGELVWCNDFEE (peptide)
peptide: GEADCSYHLGELVWCNDFEE
notes: as for B1

The target in the first test is human albumin (human, UniProt P02768 25-609). The experiment in a line: phage ELISA. Here is the method:
(§1) Phage ELISA—Phage clones (˜10¹¹ phage) were added to plates coated with rat, rabbit or human albumin. The microtiter plate was washed with wash buffer and bound phage were detected with HRP/Anti-M13 Conjugate. The amount of HRP bound was measured using ABTS/H₂O₂ substrate and monitoring the change at 405 nm.
(In general: ELISA stands for enzyme-linked immunosorbent assay.)
As for MWDVCFPDWGCLWDV (phage clone, Library RBC) [RBC-R15], the binding result is on record as “no binding”.
In the case of DSCGDLLRLGLECWA (phage clone, Library RD) [RD-R6], the binding result is reported as “no binding”.
Still for that read-out and setting: to DTCSDLVGLGLECWA (phage clone, Library RD) [RD-R1] belongs “no binding”; to DTCDDLVQLGLECWA (phage clone, Library RD) [RD-R11], “no binding”; to EWDVCFPAWGCLWDQ (phage clone, Library RBC) [RBC-R18], “no binding”.
Same read-out and setting: to DTCEDLVRLGLECWA (phage clone, Library RD) [RD-R5] belongs “no binding”.
For NTCADLVRLGLECWA (phage clone, Library RD) [RD-R7], the binding result was “no binding”.
Still for that read-out and setting: next, EFDLCLPTWGCLWED (phage clone, Library RBC) [RBC-R13]: “no binding”; VWDLCLPQWGCLWDE (phage clone, Library RBC) [RBC-R11]: “no binding”.

The next test deals with rabbit albumin (rabbit, UniProt P49065 25-608). Briefly: phage ELISA. Here is the method: as §1
rabbit albumin, sequence (P49065 25-608 limits assumed): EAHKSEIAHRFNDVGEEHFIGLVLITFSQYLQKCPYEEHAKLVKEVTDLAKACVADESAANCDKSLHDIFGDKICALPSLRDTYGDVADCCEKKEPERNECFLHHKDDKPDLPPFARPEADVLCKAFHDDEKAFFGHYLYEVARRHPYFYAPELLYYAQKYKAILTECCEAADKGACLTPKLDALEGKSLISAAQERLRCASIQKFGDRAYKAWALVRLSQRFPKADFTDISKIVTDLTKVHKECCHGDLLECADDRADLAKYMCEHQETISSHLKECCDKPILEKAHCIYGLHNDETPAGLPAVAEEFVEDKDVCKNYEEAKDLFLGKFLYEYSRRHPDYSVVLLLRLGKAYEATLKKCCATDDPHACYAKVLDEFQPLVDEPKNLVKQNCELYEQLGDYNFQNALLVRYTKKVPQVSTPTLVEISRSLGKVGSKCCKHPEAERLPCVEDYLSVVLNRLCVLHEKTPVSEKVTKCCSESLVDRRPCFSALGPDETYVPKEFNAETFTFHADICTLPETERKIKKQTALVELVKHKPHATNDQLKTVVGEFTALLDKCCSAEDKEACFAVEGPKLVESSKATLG
Take MWDVCFPDWGCLWDV (phage clone, Library RBC) [RBC-R15]: the binding result is given as “no binding”.
Still for that read-out and setting: next, DSCGDLLRLGLECWA (phage clone, Library RD) [RD-R6]: “no binding”; DTCSDLVGLGLECWA (phage clone, Library RD) [RD-R1]: “no binding”.
For DTCDDLVQLGLECWA (phage clone, Library RD) [RD-R11], the binding result was “no binding”.
On the same count and under the same terms, to EWDVCFPAWGCLWDQ (phage clone, Library RBC) [RBC-R18] belongs “no binding”; to DTCEDLVRLGLECWA (phage clone, Library RD) [RD-R5], “no binding”; to NTCADLVRLGLECWA (phage clone, Library RD) [RD-R7], “no binding”.
The same measure, in the same setting: to EFDLCLPTWGCLWED (phage clone, Library RBC) [RBC-R13] belongs “no binding”; to VWDLCLPQWGCLWDE (phage clone, Library RBC) [RBC-R11], “no binding”.

For the next test, the target named is T1, IgG-Fc (UniProt P01857-1 108-330 = IgG part, limits assumed).
T1 construct: domain: IgG-Fc; also called biotinylated-IgG-Fc; biotin-IgG-Fc
Briefly: phage ELISA, M13/gIII display.
Consider B1, for which the EC50 was 77 nM.
The molecule B2 gave an EC50 of 386 nM.
On the same count and under the same terms, to B3 belongs 70 nM; to B4, 23 nM; to B5, 326 nM.
Same read-out and setting: to B6 belongs 278 nM; to B7, 301 nM; to B8, 8 nM.
With B9, the EC50 came out at 100 nM.
Still for that read-out and setting: to B10 belongs 210 nM; to DLADCSWHLGELVWCVGLDE (M13/gIII phage display; Designed Clones) [phage clone DLADCSWHLGELVWCVGLDE], 28 nM.
Same read-out and setting: to DLADCSWHLGELVWCSRVEG (M13/gIII phage display; Designed Clones) [phage clone DLADCSWHLGELVWCSRVEG] belongs 9 nM.
The same measure, in the same setting: to B11 belongs 776 nM.
The molecule B12 displayed an EC50 of 66 nM.
The molecule B13 came in with an EC50 of 63 nM.
For the molecule WVEDCSWHLGELVWCVGLDF (M13/gIII phage display; Designed Clones) [phage clone WVEDCSWHLGELVWCVGLDF], the midpoint of the response, the EC50, lay at 31 nM.
Still for that read-out and setting: to B14 belongs 10 nM.
As for B15, the EC50 stood at 9 nM.
Turning to B16, the EC50 was 14 nM.
Turning to B17, the EC50 is 15 nM.
On the same count and under the same terms, to B18 belongs 47 nM.
Regarding B19, the EC50 amounted to 139 nM. This EC50 lies about 3-fold higher than the previous one.
With B20, a half-maximal response (EC50) required 7 nM.
The same measure, in the same setting: next, B21: 69 nM.
Same read-out and setting: next, B22: 7 nM; B23: 38 nM.
Same read-out and setting: next, B24: 138 nM; B25: 225 nM.
The molecule B26 registered an EC50 of 734 nM. This EC50 is about 3.3-fold higher than that of the molecule before.
B27 yielded an EC50 of 416 nM.
Turning to B28, the EC50 is 818 nM. Compared with the last molecule, the EC50 is about 2-fold higher.
On the same count and under the same terms, next, B29: 44 nM; B30: 809 nM.
Take B31: the EC50 worked out at 156 nM.

One may read the EC50 as the concentration giving half of the maximal effect.

The record behind these values is US20040253247A1 (Genentech, published 2004).
